The target of data set [1] is T1, chymase (recombinant, manufactured by SIGMA) (Homo sapiens, UniProt P23946).
T1 construct: purchased SIGMA; host or cells: yeast
T1 sequence (P23946 22-247): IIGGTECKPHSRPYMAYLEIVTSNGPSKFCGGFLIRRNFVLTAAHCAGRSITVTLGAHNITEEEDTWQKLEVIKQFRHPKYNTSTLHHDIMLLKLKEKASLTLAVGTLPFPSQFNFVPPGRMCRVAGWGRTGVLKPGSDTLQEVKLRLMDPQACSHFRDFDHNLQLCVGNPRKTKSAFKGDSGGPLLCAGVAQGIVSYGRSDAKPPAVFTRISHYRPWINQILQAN
As to the kind of experiment: Chymase inhibitory activity using synthetic substrate Suc-Ala-Ala-Pro-Phe-MCA. In kind it is biochemical. Conditions: Table 3; substrate 100 μM, solution C, 37° C.; mean value for 2 to 3 measurements. Here is the method: A first method employs a synthetic substrate. A useful chymase substrate is Suc-Ala-Ala-Pro-Phe-MCA (4-methylcoumaryl-7-amide group) (manufactured by Peptide Institute, Inc.), which contains the 4-amino acid peptide “Ala-Ala-Pro-Phe”, a standard substrate for chymotrypsin-like proteases.
The assay is performed using a 96-well plate (F16 Black Maxisorp Fluoronunc, manufactured by Nunc), with a reaction mixture volume of 100 μL, in a buffer solution (solution C; see Example 2 below). First, each nucleic acid is prepared in solution C to obtain 50 μL solutions. After 10 μL of the 1 mM substrate prepared in solution C is added, the plate is set to the microplate reader SpectraMax190 (manufactured by Molecular Devices Corporation), and incubated at 37° C. for 5 minutes. Separately, 0.05 μg of chymase (recombinant, manufactured by SIGMA) is diluted in solution C, and 40 μL of this dilution is incubated at 37° C. for 5 minutes. The chymase solution is added to the mixture of the nucleic acid and substrate to initiate an enzyme reaction. The plate containing the reaction mixture is set to the microplate reader SpectraMax190 (manufactured by Molecular Devices Corporation), and examined for time-dependent changes in the fluorescence intensity at 37° C. for 5 minutes (excitation wavelength 380 nm, detection wavelength 460 nm). A linear approximation of the increase in the fluorescence of the AMC (7-amino-4-methylcoumarine) released from the substrate by chymase activity is generated, and its slope is taken as the initial reaction velocity. For control, samples are treated and analyzed in the same manner in two cases: use of a nucleic acid pool containing a random sequence of 30 or 40 nucleotides (negative control), and use of chymostatin, a known chymotrypsin-like serine protease inhibitor (positive control). Taking the initial reaction velocity without the nucleic acid and inhibitor as a 100% enzyme activity, the inhibitory rate for each test substance is calculated, and the inhibitor concentration required to cause a 50% inhibition of the enzyme activity (IC50) is determined.
Whether the nucleic acids shown by SEQ ID NO: 4-20, 22-34, and 38-48 inhibit the enzyme activity of chymase was determined as described below. The chymase substrate used was Suc-Ala-Ala-Pro-Phe-MCA (manufactured by Peptide Institute, Inc.), which contains the 4-amino-acid peptide Ala-Ala-Pro-Phe, a standard substrate for chymotrypsin-like proteases. Here, Suc is a protecting succinyl group, and MCA is a 4-methylcoumaryl-7-amide group; upon cleavage of the C-terminal side of phenylalanine, AMC (7-amino-4-methylcoumarine) is released. By detecting the fluorescence of this AMC, the enzyme activity of chymase can be determined. The assay was performed using a 96-well plate (F16 Black Maxisorp Fluoronunc, manufactured by Nunc), with a reaction mixture volume of 100 μL, in solution C as a buffer solution. First, each nucleic acid was serially diluted to 0.0027-2 μM concentrations in solution C to obtain 50 μL solutions. After 10 μL of the 1 mM substrate prepared in solution C was added thereto, the plate was set to the microplate reader SpectraMax190 (manufactured by Molecular Devices Corporation), and incubated at 37° C. for 5 minutes. Separately, 0.05 μg (or 0.005 μg) of chymase (recombinant, manufactured by SIGMA) was diluted in solution C to obtain a 40 μL chymase solution, and incubated at 37° C. for 5 minutes. The chymase solution was added to the mixture of the nucleic acid and substrate to initiate an enzyme reaction. The final chymase concentration in the reaction mixture was 16.7 nM (or 1.67 nM), the final substrate concentration being 100 μM. The plate containing the reaction mixture was set to the microplate reader SpectraMax190 (manufactured by Molecular Devices Corporation), and examined for time-dependent changes in the fluorescence intensity at 37° C. for 5 minutes (or 30 minutes) (excitation wavelength 380 nm, detection wavelength 460 nm). […]

For another data set, the target named is T2, chymase (Homo sapiens, UniProt P23946).
T2 sequence (P23946 22-247): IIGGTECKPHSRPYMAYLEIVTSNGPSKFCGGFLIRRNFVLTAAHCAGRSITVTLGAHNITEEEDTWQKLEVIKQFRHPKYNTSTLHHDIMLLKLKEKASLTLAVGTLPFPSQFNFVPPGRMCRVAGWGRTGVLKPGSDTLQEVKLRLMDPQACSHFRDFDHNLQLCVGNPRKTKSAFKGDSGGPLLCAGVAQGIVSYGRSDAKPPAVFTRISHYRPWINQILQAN
As to the kind of experiment: Surface plasmon resonance (Biacore T100), aptamer immobilized on SA chip, chymase injected as analyte. The settings on record: Table 1; about 1000 RU nucleic acid immobilized, chymase 0.2 μM analyte, running buffer solution A; compared with 40N. Also noted: key: ++: a sequence that binds to chymase significantly more strongly than the negative control 40N; +: a sequence that binds to chymase equivalently compared with the negative control 40N. In kind it is binding. The method, then: Binding strength is measured using Biacore T100 (manufactured by GE Healthcare). In a method of measurement, the aptamer is first immobilized onto a sensor chip, the amount immobilized being about 1000 RU. 20 μL of a chymase solution for analyte, prepared at 0.2 μM, is injected, and the binding of chymase to the aptamer is detected. An RNA comprising a random nucleotide sequence of 30 or 40 nucleotides is used as a negative control.
The binding activities against chymase of the nucleic acids shown by SEQ ID NO: 4-20 and 22-34 were determined by the surface plasmon resonance method using Biacore T100 (manufactured by GE Healthcare). The sensor chip used was the SA chip, which had streptavidin immobilized thereon. Bound thereto was about 1500 RU of a 16-nucleotide Poly dT with biotin bound to the 5′ end thereof. […] 20 μL of chymase for analyte, prepared at 0.2 μM, was injected. Solution A was used as a running buffer.
The binding activities against chymase of the nucleic acids shown by SEQ ID NO: 38-48 were evaluated by the surface plasmon resonance method. In the evaluations for SEQ ID NO: 38-48, measurements were taken in the same manner as Example 1. Solution C was used as a running buffer.
A general note: SPR reads the build-up and loss of mass on a sensor chip optically.

Oligonucleotides are written 5' to 3', each unit as a sugar letter and its base; * is a phosphorothioate linkage, no mark a phosphodiester; rarer units and linkages stand in square brackets, end groups in braces. Plain capitals give the bases only. r = 2'-OH (RNA); f = 2'-fluoro

By IC50 is commonly meant the concentration that gives 50% inhibition.

B1: 20 (nucleic acid)
chain: rGrGrGrAfCrGrGfUrArGrGrArAfUfUfCrArArArAfUfCrArGfCfUrGrAfUfUfUrGfUrArAfUfUfUfUfUfUfUrAfCrAfCrArGrGfCrArArArAfCrAfCrAfUrArGrArArGrArGfCrGrGfCfCrGfC
modifications: aptamer
Regarding B1, the IC50 in data set [1] amounted to 282 ± 13 nM. Further, the “Binding activity as determined using Biacore” value (“Binding activity as determined” for short) in the data set with chymase was “+”.

B2: 25 (nucleic acid)
chain: rGrGrGrAfCrGrGfUrArGrGrArAfUfUfCrArGfCfUrGrAfCfUfCfCrArAfUrGfCrAfCrAfCrGfUrArGrAfUrArGrArGfUfUrArArArAfCrGfUfUrGfCrAfUrArGrArArGrArGfCrGrGfCfCrGfC
modifications: aptamer
Take B2: the half-inhibitory concentration (IC50) in data set [1] is 79 ± 28 nM. Also, in the data set with chymase, the “Binding activity as determined” value is reported as “++”.

B3: 24 (nucleic acid)
chain: rGrGrGrAfCrGrGfUrArGrGrArAfUfUfCfCfCfUfUfCrAfUrArGfUrArGrArAfUrGfUfUrGrGfUfUfUfCfUrAfCrArArArArGfCrGrAfCrArArGfCrAfUrArGrArArGrArGfCrGrGfCfCrGfC
modifications: aptamer
As for B3, in data set [1], the IC50 was found to be 92 ± 3 nM. The “Binding activity as determined” value with chymase is on record as “++”.

B4: 19 (nucleic acid)
chain: rGrGrGrAfCrGrGfUrArGrGrArAfUfUfCfCfCrAfCfUrGfCrArAfUfUfCrArGfCrArGrArArArArArAfUfUfCfCrGrArArArArAfCrAfCrAfCrAfCfCrAfUrArGrArArGrArGfCrGrGfCfCrGfC
modifications: aptamer
B4: the 50% inhibitory concentration (IC50) in data set [1] amounted to 163 ± 1 nM. Also, the “Binding activity as determined” value with chymase was “++”.

B5: 22 (nucleic acid)
chain: rGrGrGrAfCrGrGfUrArGrGrArAfUfUfCfCfCrGrAfCrAfCrArArArAfUrGfUrGfUrGrAfUfUrArAfUfUfCfCrGrArAfCrArAfCrArArArGfUrArAfCrAfUrArGrArArGrArGfCrGrGfCfCrGfC
modifications: aptamer
Turning to B5, the IC50 in data set [1] came to 105 ± 9 nM. The “Binding activity as determined” value with chymase is “+”.

B6: 26 (nucleic acid)
chain: rGrGrGrAfCrGrGfUrArGrGrArAfUfUfCrGfUfCrGrAfUfUfCfUrAfCrArGrAfUrArGrArGrAfUrArArArGfUrArGrArAfUfUfUrArAfCrArArArAfCrAfUrArGrArArGrArGfCrGrGfCfCrGfC
modifications: aptamer
In the case of B6, in data set [1], the 50% inhibitory concentration (IC50) was 106 ± 4 nM. For the same molecule, the “Binding activity as determined” value in the data set with chymase is reported as “++”.

B7: 18 (nucleic acid)
chain: rGrGrGrAfCrGrGfUrArGrGrArAfUfUfCrGrArAfCrGrAfCrArArAfUfUrAfUrArGrArAfCfUfUfCrGfUfUfUrGrAfCrAfUfUfCfCrAfCrAfCfCrAfCrAfUrArGrArArGrArGfCrGrGfCfCrGfC
modifications: aptamer
B7: in data set [1], the IC50 was 58 ± 21 nM. The “Binding activity as determined” value with chymase was “++”.

B8: 16 (nucleic acid)
chain: rGrGrGrAfCrGrGfUrArGrGrArAfUfUfCfCfCrAfUrGrAfCfUrGrArArArArAfCrGfUfCrArGfUrArArArAfUfCfCrGrArArArAfUfCrAfUrAfUfCrAfUrArGrArArGrArGfCrGrGfCfCrGfC
modifications: aptamer
As for B8, the IC50 in data set [1] was more than 500 nM. In addition, the “Binding activity as determined” value in the data set with chymase is “++”.

B9: 17 (nucleic acid)
chain: rGrGrGrAfCrGrGfUrArGrGrArAfUfUfCfCrGfUfUfCrGfCrArGrArArAfCrGrArAfCfUfUfUfUrArArArArArAfUrGfUrAfCrGfUrGrGrGrArGfCrAfCrAfUrArGrArArGrArGfCrGrGfCfCrGfC
With B9, in data set [1], the IC50 was 92 ± 42 nM. For the same molecule, the “Binding activity as determined” value with chymase is “++”.

B10: 23 (nucleic acid)
chain: rGrGrGrAfCrGrGfUrArGrGrArAfUfUfCrAfUrAfUrGfUrAfCfUfCfCrGfUfCfCfUrGrAfCrArArArAfUrGfUfCrArAfUrGrAfCrArArAfCrGfUfUfCrAfUrArGrArArGrArGfCrGrGfCfCrGfC
modifications: aptamer
As for B10, the IC50 in data set [1] worked out at 238 ± 60 nM. In addition, in the data set with chymase, the “Binding activity as determined” value is on record as “++”.

The values are drawn from patent US9012420B2, “Aptamer for chymase, and use thereof” (Ribomic Inc., priority 2009, dated 2015).
